Test results: patent US20260210939A1, “MODIFIED OLFACTORY RECEPTORS” (GIVAUDAN SA, priority 2022, published 2026)
Read-outs that look alike come from different tables or passages of the source.

Key:
[1] = target: T1, OR5B12 (Homo sapiens, UniProt Q96R08, C141R); assay: CRE-luciferase assay, HEK293T cells expressing OR5B12 (wild-type / modified C-terminus); format: cell-based; conditions: for Fold-improvement potency / Fold-improvement threshold: changed C-term. vs wild-type; for % of the activation by the optimized sequence RNKEVKDALKRLLKRKCC: OR5B12 variant
T1 construct: Improved functional expression of modified OR-genes containing the truncated, optimized C-terminus; expressed in transfected cells; host or cells: HEK293T stably expressing human RTP1S(V227I) and RTP2(L220R)
T1 sequence (Q96R08 with tags, fused parts or gaps C141R): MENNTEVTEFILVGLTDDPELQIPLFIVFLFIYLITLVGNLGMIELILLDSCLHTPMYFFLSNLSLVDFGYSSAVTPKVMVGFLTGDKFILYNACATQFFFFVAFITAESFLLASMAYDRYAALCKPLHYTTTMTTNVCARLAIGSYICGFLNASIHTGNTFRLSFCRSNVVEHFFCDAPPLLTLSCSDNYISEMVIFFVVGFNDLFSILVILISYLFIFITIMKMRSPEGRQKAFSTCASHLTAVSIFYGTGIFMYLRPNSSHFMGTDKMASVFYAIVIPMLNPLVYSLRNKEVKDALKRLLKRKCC

[2] = target: T2, OR2T4 (Homo sapiens, UniProt Q8NH00, D328E/G331D/M330K); conditions: for ligand identification in sulfur odorant screen: OR2T4 with optimized C-terminus SEQ ID NO: 86; for % of the activation by the optimized sequence RNKEVKDALKRLLKRKCC: OR2T4 variant
T2 sequence (Q8NH00 with tags, fused parts or gaps D328E/M330K/G331D): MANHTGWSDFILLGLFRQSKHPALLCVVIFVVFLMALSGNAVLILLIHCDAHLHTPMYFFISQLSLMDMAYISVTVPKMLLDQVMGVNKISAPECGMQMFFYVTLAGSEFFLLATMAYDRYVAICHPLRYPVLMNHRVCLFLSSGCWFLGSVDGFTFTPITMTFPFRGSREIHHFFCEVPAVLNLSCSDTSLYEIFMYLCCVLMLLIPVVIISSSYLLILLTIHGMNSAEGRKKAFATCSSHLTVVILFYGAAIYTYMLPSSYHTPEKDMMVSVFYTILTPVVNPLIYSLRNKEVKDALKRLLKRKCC

[3] = target: T3, OR7C1 (Homo sapiens, UniProt O76099, D296E/G302K/M297V/R299D/T295K/V126I); assay: CRE-luciferase assay, HEK293T cells expressing OR7C1 (wild-type / modified C-terminus); format: cell-based; conditions: OR7C1 variant, 1 μM Ambermax
T3 construct: Improved functional expression of modified OR-genes containing the truncated, optimized C-terminus; expressed in transfected cells; host or cells: HEK293T stably expressing human RTP1S(V227I) and RTP2(L220R)
T3 sequence (O76099 with tags, fused parts or gaps V126I/T295K/D296E/M297V/R299D/G302K): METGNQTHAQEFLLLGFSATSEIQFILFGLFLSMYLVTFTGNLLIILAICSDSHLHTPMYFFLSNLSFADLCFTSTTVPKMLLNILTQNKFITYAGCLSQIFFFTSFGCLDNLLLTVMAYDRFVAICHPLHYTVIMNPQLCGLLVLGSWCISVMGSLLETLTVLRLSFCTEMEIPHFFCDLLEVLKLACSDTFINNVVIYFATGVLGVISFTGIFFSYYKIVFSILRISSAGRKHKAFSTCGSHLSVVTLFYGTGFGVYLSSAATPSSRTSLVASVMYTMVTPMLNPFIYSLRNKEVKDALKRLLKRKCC
Source text: To test for possible variants of the sequence […]CC (SEQ ID NO: 86) leading to similar improved functional expression, different point mutations were introduced into the first 16 amino acids of this sequence (corresponding to […], SEQ ID NO: 10) and the variants were fused after the TM7 with OR7C1. […] The test concentrations were selected to fall into the range of partial activity of the wild-type sequence.

[4] = 4 μM 2-methyl-3-tetrahydrofuranethiol
[5] = 8 μM 2-methyl-3-tetrahydrofuranethiol

Row | % of the activation by the optimized sequence RNKEVKDALKRLLKRKCC [3] [%] | % of the activation by the optimized sequence RNKEVKDALKRLLKRKCC ([1]; 31 μM Hedione HC) [%] | % of the activation by the optimized sequence RNKEVKDALKRLLKRKCC ([1]; 62.5 μM Hedione HC) [%] | Molecule | other results
1 | – | – | – | CCCCCC1C(=O)CCC1CC(=O)OC (racemic) [Hedione HC, reference compound] | Comments on efficacy [1]: 4-fold lower; Detection threshold; concentration for 2-fold induction ([1]; changed C-term. SEQ ID NO: 86): 8.8 µM; EC50 ([1]; changed C-term. SEQ ID NO: 86): 18.3 µM; Fold-improvement potency [1]: 3.8; Fold-improvement threshold [1]: 11; Detection threshold; concentration for 2-fold induction ([1]; wild-type): 96 µM; EC50 ([1]; wild-type): 69 µM
2 | – | – | – | CC1OCCC1S (stereo not shown) [2-methyl-3-tetrahydrofuranthiol, reference compound] | ligand identification in sulfur odorant screen [2]: good ligands
3 | – | – | – | CCCCCC1C(=O)CCC1CC(=O)OC (stereo not shown) [Hedione, reference compound] | Comments on efficacy [1]: type only 1.75-; Detection threshold; concentration for 2-fold induction ([1]; changed C-term. SEQ ID NO: 86): 29 µM; EC50 ([1]; changed C-term. SEQ ID NO: 86): 58.3 µM; Fold-improvement potency [1]: >5; Fold-improvement threshold [1]: >9; Detection threshold; concentration for 2-fold induction ([1]; wild-type): (>>250) μM; EC50 ([1]; wild-type): > 250 µM
4 | – | – | – | CCCSSCCC [dipropyl disulfide, reference compound] | ligand identification in sulfur odorant screen [2]: good ligands
5 | 89.5 | 0 | 0 | SEQ ID NO: 10 (RNKEVKDALKRLLKRK; source 1..16: note = C-terminal domain sequence) | % of the activation by the optimized sequence RNKEVKDALKRLLKRKCC ([2]; 10 μM Cyclopentanethiol, 30 μM copper): 25.3%; % of the activation by the optimized sequence RNKEVKDALKRLLKRKCC ([2]; 31 μM Cyclopentanethiol, 30 μM copper): 25.2%
6 | 262.4 | 317.8 | 195.1 | SEQ ID NO: 114 (RNKEVKRAIKRLLKRKCC; source 1..18: note = C-terminal domain sequence) | % of the activation by the optimized sequence RNKEVKDALKRLLKRKCC [2, 4]: 108.8%; % of the activation by the optimized sequence RNKEVKDALKRLLKRKCC [2, 5]: 116.6%
7 | – | 349.2 | 242.5 | SEQ ID NO: 115 (RNKEVKKAIKRLLKRKCC; source 1..18: note = C-terminal domain sequence) | % of the activation by the optimized sequence RNKEVKDALKRLLKRKCC [2, 4]: 103.1%; % of the activation by the optimized sequence RNKEVKDALKRLLKRKCC [2, 5]: 115.2%
8 | 393.9 | 433.2 | 303.9 | SEQ ID NO: 116 (RNKEVKRAIKRLFKRKCC; source 1..18: note = C-terminal domain sequence) | % of the activation by the optimized sequence RNKEVKDALKRLLKRKCC [2, 4]: 63.3%; % of the activation by the optimized sequence RNKEVKDALKRLLKRKCC [2, 5]: 77.0%
9 | 188.9 | – | – | SEQ ID NO: 133 (RNKEVKDALKRLLKRKCRR; source 1..19: note = C-terminal domain sequence) | % of the activation by the optimized sequence RNKEVKDALKRLLKRKCC [2, 4]: 101.4%; % of the activation by the optimized sequence RNKEVKDALKRLLKRKCC [2, 5]: 110.0%
10 | – | 168.91 | 121.37 | SEQ ID NO: 134 (RNKEVKDALKRLLKRKCCC; source 1..19: note = C-terminal domain sequence) | –
11 | – | 207.32 | 127.22 | SEQ ID NO: 135 (RNKEVKDALKRLLKRKCCF; source 1..19: note = C-terminal domain sequence) | –
12 | – | 533.84 | 189.64 | SEQ ID NO: 136 (RNKEVKDALKRLLKRKCCL; source 1..19: note = C-terminal domain sequence) | –
13 | – | 177.47 | 182.76 | SEQ ID NO: 137 (RNKEVKDALKRLLKRKCCM; source 1..19: note = C-terminal domain sequence) | –
14 | – | 176.99 | 75.63 | SEQ ID NO: 138 (RNKEVKDALKRLLKRKCCS; source 1..19: note = C-terminal domain sequence) | –
15 | – | 98.68 | 98.17 | SEQ ID NO: 139 (RNKEVKDALKRLLKRKCCP; source 1..19: note = C-terminal domain sequence) | –
16 | – | 230.04 | 143.71 | SEQ ID NO: 140 (RNKEVKDALKRLLKRKCCA; source 1..19: note = C-terminal domain sequence) | –
17 | – | 298.48 | 274.09 | SEQ ID NO: 141 (RNKEVKDALKRLLKRKCCY; source 1..19: note = C-terminal domain sequence) | –

Row | % of the activation by the optimized sequence RNKEVKDALKRLLKRKCC [3] [%] | % of the activation by the optimized sequence RNKEVKDALKRLLKRKCC ([1]; 31 μM Hedione HC) [%] | % of the activation by the optimized sequence RNKEVKDALKRLLKRKCC ([1]; 62.5 μM Hedione HC) [%] | Molecule | other results
18 | – | 142.62 | 129.19 | SEQ ID NO: 142 (RNKEVKDALKRLLKRKCCH; source 1..19: note = C-terminal domain sequence) | –
19 | – | 137.13 | 91.94 | SEQ ID NO: 143 (RNKEVKDALKRLLKRKCCN; source 1..19: note = C-terminal domain sequence) | –
20 | – | 86.54 | 56.54 | SEQ ID NO: 144 (RNKEVKDALKRLLKRKCCD; source 1..19: note = C-terminal domain sequence) | –
21 | – | 280.71 | 237.30 | SEQ ID NO: 145 (RNKEVKDALKRLLKRKCCK; source 1..19: note = C-terminal domain sequence) | –
22 | – | 619.88 | 248.52 | SEQ ID NO: 146 (RNKEVKDALKRLLKRKCCR; source 1..19: note = C-terminal domain sequence) | –
23 | – | 394.57 | 300.08 | SEQ ID NO: 147 (RNKEVKDALKRLLKRKCCG; source 1..19: note = C-terminal domain sequence) | –
24 | – | 181.2 | 189.0 | SEQ ID NO: 148: printed for RNKEVKDALKRLLKRKCRR in Table 6 | –
25 | – | 240.6 | 229.5 | SEQ ID NO: 151 (RNKEVKDALKRLLKRKCCRR; source 1..20: note = C-terminal domain sequence) | –
26 | – | 244.3 | 239.6 | SEQ ID NO: 219 (RNKEVKDALKRLLKRKCCRRRR; source 1..22: note = C-terminal domain sequence) | –
27 | – | 1092.9 | 922.2 | SEQ ID NO: 220 (RNKEVKKAIKRLLKRKCCRRR; source 1..21: note = C-terminal domain sequence) | % of the activation by the optimized sequence RNKEVKDALKRLLKRKCC [2, 4]: 76.6%; % of the activation by the optimized sequence RNKEVKDALKRLLKRKCC [2, 5]: 61.9%
28 | 127.8 | – | – | Tyr Arg | –
29 | 95.4 | – | – | Tyr Leu | –
30 | 221.7 | – | – | Tyr Pro | –
31 | 108.3 | – | – | Tyr Tyr | –
32 | 1.3 | – | – | Val Met | –
33 | 4.3 | – | – | Val Ser | –
